Legend:
[1] = target: human CD16A-158V ECD fused to monomeric Fc (human) (UniProt P08637); test: SPR, Biacore T200, receptor captured, 1:1 model
[2] = target: human CD16A-158F ECD fused to monomeric Fc (human) (UniProt P08637); test: SPR, Biacore T200, receptor captured, 1:1 model
Chain of human CD16A-158F ECD fused to monomeric Fc (human) (P08637 17-208): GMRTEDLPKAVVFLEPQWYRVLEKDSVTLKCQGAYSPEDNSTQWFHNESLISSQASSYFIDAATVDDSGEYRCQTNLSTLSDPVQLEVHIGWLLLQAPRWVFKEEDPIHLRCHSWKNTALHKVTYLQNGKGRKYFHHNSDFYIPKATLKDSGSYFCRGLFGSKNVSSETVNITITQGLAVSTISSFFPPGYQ

Chain of human CD16A-158V ECD fused to monomeric Fc (human) (P08637 17-208 F176V): as the sequence (P08637 17-208) above, with F160V counted along it

Kd [1]	koff [1]	kon [1]	Kd [2]	koff [2]	kon [2]	Substance
0.0135 µM	0.00639 s⁻¹	474000 M⁻¹ s⁻¹	–	–	–	human IgG1 Fc-enhanced (S239D/I332E) (antibody)
0.424 µM	0.00995 s⁻¹	23500 M⁻¹ s⁻¹	2.72 µM	0.0675 s⁻¹	24800 M⁻¹ s⁻¹	human IgG1 (IgG1 Fc wildtype) (antibody)
–	–	–	34.7 µM	0.71 s⁻¹	20400 M⁻¹ s⁻¹	human IgG1 Fc-silenced (L234F/L235E/D265A) (antibody)

From US20200109202A1
